The values that follow come from US20250129150A1 (APOGEE THERAPEUTICS, published 2025).

Test [1] addresses T1, hIL-13 (human, UniProt P35225 35-146, limits assumed).
T1 construct: IL-13 as used in the cell assays, the ELISA, the binning study and HDX-MS/XL-MS; also called human IL-13; Hu IL-13
The test can be described thus: ELISA. (In an ELISA, binding on a coated surface is turned into a signal by an enzyme label.)

For test [2], the target named is T1, hIL-13. Kind of test: cell-based or functional assay.
Test [3] addresses T1, hIL-13. The test can be described thus: cell-based or functional assay. This is another data set of the same source.
The target of test [4] is T1, hIL-13. Kind of test: cell-based or functional assay. This is another data set of the same source.
Test [5] addresses T1, hIL-13. The test can be described thus: cell-based or functional assay. The source holds these as a separate data set.
Test [6] addresses T1, hIL-13. Kind of test: cell-based or functional assay. The source holds these as a separate data set.
Test [7] addresses T1, hIL-13. Kind of test: cell-based or functional assay. This is another data set of the same source.
For test [8], the target named is T2, Recombinant Human IL-13 Protein, His Tag (Acro Cat. IL3-H52H4) (human, UniProt P35225 35-146).
T2 construct: Bought protein; also called Hu IL-13; not shown: His Tag
T2 sequence (P35225 other isoform, or with tags, fused parts or gaps limits assumed): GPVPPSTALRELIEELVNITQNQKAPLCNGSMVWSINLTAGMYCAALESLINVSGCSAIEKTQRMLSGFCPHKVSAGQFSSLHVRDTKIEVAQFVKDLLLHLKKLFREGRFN
The test can be described thus: SPR (Biacore 8K), mAb captured on Protein G chip, IL-13 as analyte. On the procedure: Samples were injected in a multi-cycle manner over freshly captured mAb, by regenerating the capture surfaces with injection of glycine pH 1.5 for 30 sec at a flow rate of 30 μL/min. The data was processed and analyzed with Biacore Insight Evaluation Software Version 2.0.15.12933 (GE Healthcare) as follows. […] The responses from the two buffer blank injections were then subtracted from the reference subtracted data (2-1) to yield double-referenced data, which were fit to an 1:1 binding model to determine the apparent association (ka) and dissociation rate constants (kd). Their ratio provided the apparent equilibrium dissociation constant or affinity constant (KD=kd/ka).
(In general: SPR reads the build-up and loss of mass on a sensor chip optically.)

For test [9], the target named is T2, Recombinant Human IL-13 Protein, His …. The test is described as above. The gist of the method:
(§1)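 Antigen injected multi-cycle over freshly captured mAb; surfaces regenerated with glycine pH 1.5 for 30 sec. Double-referenced sensorgrams fit to a 1:1 binding model for apparent ka and kd; KD = kd/ka.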
This is another data set of the same source.

The target of test [10] is T3, Recombinant Cynomolgus IL-13 Protein, His Tag (SINO BIOLOGICAL, Cat. 11057-C07H) (cynomolgus monkey, UniProt Q5I6E4 19-132 (Macaca thibetana entry)).
T3 construct: also called Cyno IL-13; cynomolgus monkey IL-13
T3 chain: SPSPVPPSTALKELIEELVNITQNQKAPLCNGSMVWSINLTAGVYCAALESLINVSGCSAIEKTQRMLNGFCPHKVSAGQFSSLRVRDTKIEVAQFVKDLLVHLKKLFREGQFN
The test is described as above. The gist of the method:
as §1

The target of test [11] is T4, recombinant human FcRn (human, UniProt P55899 24-297; P61769 21-119).
T4 construct: also called neonatal Fc receptor
T4 sequence (P55899 24-297 limits assumed, chain 1 of 2): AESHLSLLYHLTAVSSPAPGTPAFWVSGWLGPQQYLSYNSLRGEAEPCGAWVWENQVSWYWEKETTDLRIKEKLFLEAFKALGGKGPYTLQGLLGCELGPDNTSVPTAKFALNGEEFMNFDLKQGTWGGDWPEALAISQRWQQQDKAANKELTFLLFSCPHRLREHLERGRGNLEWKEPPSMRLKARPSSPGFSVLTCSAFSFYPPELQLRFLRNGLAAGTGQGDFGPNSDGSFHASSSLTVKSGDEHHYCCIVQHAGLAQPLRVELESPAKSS
T4 sequence (P61769 21-119 limits assumed, chain 2 of 2): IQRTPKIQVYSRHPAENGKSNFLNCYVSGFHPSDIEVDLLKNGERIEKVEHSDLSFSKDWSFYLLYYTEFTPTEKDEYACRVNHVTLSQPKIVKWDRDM
The test can be described thus: SPR, antibody captured on anti-kappa chip, FcRn as analyte, pH 5.8; pH 5.8. On the procedure: (§2) Binding affinity (KD) of antibodies to Fc receptors and C1q were determined through surface plasmon resonance (SPR) using a Biacore 8K. Briefly, an SPR chip functionalized with an anti-kappa light-chain antibody was used to capture purified antibodies normalized to […], at a flow rate of 10 uL/min for 90 seconds or 120 seconds. A paired channel with only buffer was used as reference. Subsequently, varying concentrations of recombinant human CD32a (167H), CD32a (167R), CD32b, CD16a (176V), CD16a (176F), FcRn, CD64, and C1q were injected over the surface with captured purified antibody as well as the reference channel. Regeneration of the chip between different concentrations of different antigens were performed with 10 mM Glycine HCl, pH 1.5 and antibody was again captured. Association and dissociation rate constants were subsequently determined through fitting to a 1:1 Langmuir binding model or steady-state analysis model, whichever applicable, using the Biacore Insight Evaluation Software from which a KD value was derived.

The target of test [12] is T5, recombinant human CD32a (167R) (human, UniProt P12318 36-218).
T5 sequence (looked up): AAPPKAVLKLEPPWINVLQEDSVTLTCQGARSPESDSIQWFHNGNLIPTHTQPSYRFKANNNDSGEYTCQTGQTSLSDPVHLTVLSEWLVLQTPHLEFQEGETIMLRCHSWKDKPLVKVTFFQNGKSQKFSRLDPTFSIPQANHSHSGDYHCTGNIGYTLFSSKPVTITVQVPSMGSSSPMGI
The test can be described thus: SPR, antibody captured on anti-kappa chip, recombinant human receptor as analyte. How it is done: as §2

Test [13] addresses T6, recombinant human CD32b (human, UniProt P31994 46-217).
T6 sequence (looked up): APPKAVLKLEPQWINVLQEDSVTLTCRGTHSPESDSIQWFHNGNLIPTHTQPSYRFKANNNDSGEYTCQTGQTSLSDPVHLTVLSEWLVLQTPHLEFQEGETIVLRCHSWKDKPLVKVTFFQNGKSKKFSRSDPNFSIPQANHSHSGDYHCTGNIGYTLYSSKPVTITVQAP
The test is described as above. How it is done: as §2

Test [14] has as its target recombinant human CD16a (176V) (human, UniProt P08637 17-208). The test is described as above. How it is done:
as §2

In test [15] the target is recombinant human CD64 (human, UniProt P12314 16-288). The test is described as above. On the procedure: as §2
Chain of recombinant human CD64 (P12314 16-288 limits assumed): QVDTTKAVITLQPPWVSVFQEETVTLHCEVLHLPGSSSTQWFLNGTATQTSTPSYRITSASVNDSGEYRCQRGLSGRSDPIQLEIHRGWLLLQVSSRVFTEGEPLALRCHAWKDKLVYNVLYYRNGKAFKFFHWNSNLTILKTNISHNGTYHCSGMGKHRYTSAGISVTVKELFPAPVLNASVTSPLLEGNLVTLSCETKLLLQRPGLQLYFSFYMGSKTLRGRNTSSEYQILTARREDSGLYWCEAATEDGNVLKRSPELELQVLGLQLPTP
Test [16] addresses T7, recombinant human C1q (human, UniProt P02745 23-245; P02746 28-253; P02747 29-245, limits assumed).
T7 construct: subunit composition is from general knowledge
Kind of test: SPR, antibody captured on anti-kappa chip, C1q as analyte; signal relative to rituximab. How it is done: as §2

Test [17] deals with biotinylated hIL-13 (human, UniProt P35225 35-146, limits assumed, biotinylated (site not stated)). The test can be described thus: FACS; blockade of biotinylated hIL-13 (0.05 ug/mL) binding to HEK293 cells expressing hIL-13Rα1/hIL-4Rα. The essentials:
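HEK293 cells stably co-expressing hIL-13Rα and hIL-4Rα (200,000/well) stained at 4 °C for 1 h, then a further 1 h at 4 °C in the dark. Median fluorescence intensity read by flow cytometry.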
(In flow cytometry, cells or beads pass a laser one at a time.)

Like-named read-outs stand apart in the source and are kept apart here.

T1 sequence (P35225 other isoform, or with tags, fused parts or gaps limits assumed): as the sequence (P35225 other isoform, or with tags, fused parts or gaps limits assumed) above
T7 sequence (P02745 23-245 limits assumed, chain 1 of 3): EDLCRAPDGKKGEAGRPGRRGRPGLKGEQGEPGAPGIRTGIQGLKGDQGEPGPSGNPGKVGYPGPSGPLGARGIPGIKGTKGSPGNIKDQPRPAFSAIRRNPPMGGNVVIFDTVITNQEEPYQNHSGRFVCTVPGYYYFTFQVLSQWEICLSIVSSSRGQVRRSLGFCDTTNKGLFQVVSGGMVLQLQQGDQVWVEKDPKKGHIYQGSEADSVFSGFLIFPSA
T7 sequence (P02746 28-253 limits assumed, chain 2 of 3): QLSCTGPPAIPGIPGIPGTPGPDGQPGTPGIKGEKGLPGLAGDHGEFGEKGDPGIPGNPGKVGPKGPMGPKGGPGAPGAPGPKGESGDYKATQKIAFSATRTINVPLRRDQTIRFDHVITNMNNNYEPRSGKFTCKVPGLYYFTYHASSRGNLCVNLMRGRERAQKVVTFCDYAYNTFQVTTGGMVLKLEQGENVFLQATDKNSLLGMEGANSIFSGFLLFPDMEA
T7 sequence (P02747 29-245 limits assumed, chain 3 of 3): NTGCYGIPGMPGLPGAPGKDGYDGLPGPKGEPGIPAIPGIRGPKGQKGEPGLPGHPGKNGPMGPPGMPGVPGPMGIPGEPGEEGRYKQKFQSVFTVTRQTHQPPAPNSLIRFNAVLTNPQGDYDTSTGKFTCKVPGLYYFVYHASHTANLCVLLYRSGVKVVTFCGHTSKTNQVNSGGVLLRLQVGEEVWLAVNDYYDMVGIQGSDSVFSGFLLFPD
Chain of recombinant human CD16a (176V) (P08637 17-208 F176V): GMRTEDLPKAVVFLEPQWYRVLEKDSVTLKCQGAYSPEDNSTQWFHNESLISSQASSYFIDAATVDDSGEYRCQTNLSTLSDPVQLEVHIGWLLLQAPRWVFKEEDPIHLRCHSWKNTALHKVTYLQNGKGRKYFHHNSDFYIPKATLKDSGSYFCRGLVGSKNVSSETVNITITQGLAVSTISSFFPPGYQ
Chain of biotinylated hIL-13 (P35225 other isoform, or with tags, fused parts or gaps limits assumed): as the sequence (P35225 other isoform, or with tags, fused parts or gaps limits assumed) above

B1: Construct 133 (antibody, human IgG1, kappa, L234A L235A)
heavy: EVQLQESGPGLVKPSETLSLTCTVSGFSLNAYSVNWIRQPPGKGLEWLGMIWGDGKIVYNSALKSRLTISKDSSKNQVSLKLSSVTAADTAVYYCAGDGYYPYAMDNWGQGTTVTVSSASTKGPSVFPLAPSSKSTSGGTAALGCLVKDYFPEPVTVSWNSGALTSGVHTFPAVLQSSGLYSLSSVVTVPSSSLGTQTYICNVNHKPSNTKVDKKVEPKSCDKTHTCPPCPAPEAAGGPSVFLFPPKPKDTLYITREPEVTCVVVDVSHEDPEVKFNWYVDGVEVHNAKTKPREEQYNSTYRVVSVLTVLHQDWLNGKEYKCKVSNKALPAPIEKTISKAKGQPREPQVYTLPPSRDELTKNQVSLTCLVKGFYPSDIAVEWESNGQPENNYKTTPPVLDSDGSFFLYSKLTVDKSRWQQGNVFSCSVMHEALHNHYTQKSLSLSPG
light: DIQLTQSPSSLSASVGDRVTITCRASKSVDSYGNSFMHWYQQKPGKAPKLLIYLASNLESGVPSRFSGSGSGTDFTLTISSLQPEDFATYYCQQNNEDPRTFGGGTKVEIKRTVAAPSVFIFPPSDEQLKSGTASVVCLLNNFYPREAKVQWKVDNALQSGNSQESVTEQDSKDSTYSLSSTLTLSKADYEKHKVYACEVTHQGLSSPVTKSFNRGEC
notes: also called HC1; LC6
In the case of B1, the Kd (in general, the concentration at which binding is half-saturated) in test [1] worked out at 0.019 nM; in [8], 0.077 nM; in test [9], 0.0777 nM; in test [10], 0.208 nM; in test [11] it was 150 nM. For the same molecule, the “TF-1 Proliferation Inhibition IC50” value turned out to be 0.16 nM in test [2] and 0.15 nM in test [5]. Moreover, the “pSTAT6 Inhibition IC50 (HT-29 cells)” value in [3] came out at 0.28 nM. Further, in test [4], the “TARC Inhibition IC50 (A549 cells)” value stood at 0.86 nM. Also, the “CD23 Expression Inhibition IC50 (human PBMCs)” value in [6] amounted to 0.85 nM. Further, in test [6], the “pSTAT6 Inhibition IC50 (human PBMCs)” value was determined as 0.44 nM. For the same molecule, in [7], the “CCL2 Secretion IC50 (HaCaT cells)” value amounted to 0.077 nM. Moreover, the “CCL26 Secretion IC50 (HaCaT cells)” value in [7] worked out at 0.06 nM. In addition, the “NTRK1 Expression IC50 (HaCaT cells)” value in test [7] came to 0.062 nM. The binding result in [12], in test [13], in [14] and in [15] was “no binding” in each case. Further, in test [16], the “C1q (Signal Relative to Rituximab)” value amounted to 15.9%. In addition, in test [17], the IC50 (usually the concentration needed to halve the response being measured) is 0.89 nM.

B2: Construct 136 (antibody, human IgG1, kappa, L234A L235A)
heavy: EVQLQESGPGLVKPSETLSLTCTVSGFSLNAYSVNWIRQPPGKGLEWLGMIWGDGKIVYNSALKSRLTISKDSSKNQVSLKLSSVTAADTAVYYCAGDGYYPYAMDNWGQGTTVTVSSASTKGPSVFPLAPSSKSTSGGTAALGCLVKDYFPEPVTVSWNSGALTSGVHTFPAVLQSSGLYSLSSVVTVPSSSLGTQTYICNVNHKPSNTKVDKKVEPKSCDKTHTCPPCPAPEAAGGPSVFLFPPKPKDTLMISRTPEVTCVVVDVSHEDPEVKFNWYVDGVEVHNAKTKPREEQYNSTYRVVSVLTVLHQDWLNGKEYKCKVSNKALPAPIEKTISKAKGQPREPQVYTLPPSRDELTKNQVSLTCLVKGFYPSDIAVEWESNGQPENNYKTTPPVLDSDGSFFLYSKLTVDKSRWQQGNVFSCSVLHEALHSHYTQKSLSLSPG
light: B1 light
notes: also called HC1; LC6
B2: the Kd turned out to be 0.018 nM in test [1]; 0.0698 nM in test [9]; 0.161 nM in [10]; 90 nM in test [11]; 4670 nM in test [14]. Besides, the “pSTAT6 Inhibition IC50 (HT-29 cells)” value in test [3] was 0.3 nM. Besides, the “TARC Inhibition IC50 (A549 cells)” value in test [4] was 0.89 nM. In addition, the “TF-1 Proliferation Inhibition IC50” value in [5] was 0.15 nM. Besides, the “CCL2 Secretion IC50 (HaCaT cells)” value in test [7] came out at 0.074 nM. Besides, in test [7], the “CCL26 Secretion IC50 (HaCaT cells)” value stood at 0.052 nM. In addition, the “NTRK1 Expression IC50 (HaCaT cells)” value in [7] came to 0.053 nM. For the same molecule, the binding result in test [12], in test [13] and in [15] was “no binding” each time. In addition, the “C1q (Signal Relative to Rituximab)” value in [16] turned out to be 25.4%. The molecule further returned an IC50 in [17] of 1.02 nM.
